This note sets out measurements from doi:10.1101/2022.11.10.515958 (bioRxiv, 2022).

The target in the assay is T1, GST-Whi7 (S. cerevisiae, UniProt P36167 1-246).
T1 sequence (looked up): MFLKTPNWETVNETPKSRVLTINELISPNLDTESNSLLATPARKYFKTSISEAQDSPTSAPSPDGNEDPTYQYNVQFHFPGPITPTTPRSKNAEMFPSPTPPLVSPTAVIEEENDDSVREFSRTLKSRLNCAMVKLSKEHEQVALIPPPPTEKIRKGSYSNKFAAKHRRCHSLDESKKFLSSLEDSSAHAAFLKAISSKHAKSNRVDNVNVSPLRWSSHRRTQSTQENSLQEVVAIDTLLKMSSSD
As to the kind of experiment: pull-down.

B1: Cks1-ALFA (natural protein, S. cerevisiae, UniProt P20486 1-150, looked up)
chain: MYHHYHAFQGRKLTDQERARVLEFQDSIHYSPRYSDDNYEYRHVMLPKAMLKVIPSDYFNSEVGTLRILTEDEWRGLGITQSLGWEHYECHAPEPHILLFKRPLNYEAELRAATAAAQQQQQQQQQQQQQQQQHQTQSISNDMQVPPQIS
For the molecule B1, the binding result is on record as “binds”.
